Paper PMC3335814, “Structure of an Enzyme-Derived Phosphoprotein Recognition Domain” (PLoS ONE, 2012)

T1: Dlg SH3-GK ΔHook (residues 598-975 without 679-766), as it stands in the fusion (Drosophila, UniProt P31007-5 598-975, Δ679-766)
T1 construct: Existed only joined to m11 on one chain; written apart for the pair seen in the crystal structure; also called Dlg GK^dom and its adjacent SH3 domain; GK^dom; source: E. coli BL21(DE3), purified (NiNTA, anion exchange, size exclusion), as part of the fusion m8
T1 sequence (looked up): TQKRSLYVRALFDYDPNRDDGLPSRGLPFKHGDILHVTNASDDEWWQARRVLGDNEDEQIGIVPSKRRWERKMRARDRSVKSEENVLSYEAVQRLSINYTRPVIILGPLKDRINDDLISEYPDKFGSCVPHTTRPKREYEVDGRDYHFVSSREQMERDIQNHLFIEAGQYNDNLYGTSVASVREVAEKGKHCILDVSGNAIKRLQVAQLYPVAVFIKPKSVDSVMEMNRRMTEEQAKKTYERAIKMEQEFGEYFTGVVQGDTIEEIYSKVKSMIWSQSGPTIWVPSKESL

B1: Pins Linker (residues 411-460) S436D, as it stands in the fusion (domain or fragment, Drosophila, UniProt Q9VB22 411-460, looked up)
chain: DHSASGNQSDGSENSQGRMVRVRRQDMEQLDLIKITPDGKRMQEEKLRAQ
notes: Partner of Inscuteable (Pins), Linker, residues 411-460, phosphomimetic S436D; Existed only joined to m10 on one chain; written apart for the pair seen in the crystal structure; also called Pins^LINKER S436D; Pins^S436D; source: E. coli BL21(DE3), purified (NiNTA, anion exchange, size exclusion), as part of the fusion m8

Columns and labels:
[1] = target: Pins Linker peptide (residues 427-445), pSer436, TMR-labelled (UniProt Q9VB22); assay: fluorescence polarisation; settings: read from the fitted curve at 20 µM Dlg-GK; parent: est. 0.11; read off a plot
[2] = target: Pins Linker peptide (residues 427-445), pSer436, TMR-labelled (Drosophila) (UniProt Q9VB22); assay: fluorescence polarisation; steady state anisotropy of 0.5 µM TMR-labelled Pins peptide (427-445) with increasing concentrations of Dlg constructs; 20 mM Tris pH 8, 100 mM NaCl, 1 mM DTT; nonlinear regression
[3] = target: Pins Linker peptide (residues 427-445), unphosphorylated, TMR-labelled (Drosophila) (UniProt Q9VB22); assay: as above
[4] = target: T1, Dlg SH3-GK ΔHook (residues 598-975 …); assay: crystal structure; Dlg SH3-GK ΔHook and Pins Linker S436D joined on one chain; vapor diffusion, 2 M NaCl, 0.1 M NaOAc pH 4.6; data to 1.6 Å; one molecule in the asymmetric unit; settings: both partners purified

Row | Molecule | response [1] | Kd [2] | further results
1 | Dlg GK domain (isolated GK^dom) R822A | 0.083 |  | 
2 | Dlg GK domain (isolated GK^dom) Y855A | 0.08 |  | 
3 | Dlg GK domain (isolated GK^dom) (domain or fragment) |  | 0.8 µM | Kd [3]: > 200 µM
4 | ΔHook/Pins^S436D fusion protein (Dlg 598-975 without 679-766, fused to Pins 411-460 S436D) (from UniProt P31007-5 598-975; Q9VB22 411-460) |  | 14 µM | 
5 | Dlg GK domain (isolated GK^dom) Y824A | 0.11 |  | 
6 | Dlg SH3-GK module (domain or fragment) |  | 0.3 µM | 
7 | Dlg SH3GK fused to Pins Linker without the phosphomimetic (from UniProt P31007-5 598-975; Q9VB22 411-460) |  | 0.3 µM | 
8 | Dlg GK domain (isolated GK^dom) Y831A | 0.017 |  | 
9 | B1 |  |  | binding result [4]: binds
